Data reported in patent publication US20050002900A1, “Method of treating estrogen responsive breast cancer” (priority 2001, published 2005).
One block for each molecule: values may come before it.

Legend:
[1] = tested on: human adipocytes; assay: Estradiol production by cultured human adipocytes (Active Estradiol EIA kit); assay type: cell-based; conditions: for estradiol amount: cytokine alone at increasing concentrations
Protocol: (§1) Human subcutaneous cultured adipocytes and preadipocytes, catalog nos. SP-1012, SP-1024, SP-1096, SP-75, or SP-25 were purchased from Zen-Bio, Inc. (Research Triangle Park, N.C.) and cultured according to the manufacturer's instructions.
The culture medium of the preadipocytes was supplemented with 0.1 μg/ml IFN-γ and increasing concentrations of either TNF-α or TNF-β as shown in FIG. 1. Estradiol concentrations were measured using the Active™ Estradiol EIA kit according to the manufacturer's instructions (catalog no. DSL-10-4300, Diagnostic Systems Laboratories, Inc., Webster, Tex.).
(§2) The isolated human adipocytes were also treated with different interferon family members: IFN-α, -β, and -γ.

[2] = tested on: aromatase mRNA; assay: RT-PCR of aromatase mRNA in cultured adipocytes; assay type: cell-based, human; conditions: for transcription of aromatase mRNA: cytokine alone compared to untreated control; for expression of aromatase mRNA in human adipocytes: interferon alone, endogenous expression, FIG. 3
Protocol: as §1
Adipocyte cultures were treated with IL-1-β, IFN-γ, TNF-α, and combinations of IL-1-β and IFN-γ and TNF-α and IFN-γ. Consequently, total RNA from cultured adipocytes was isolated using conventional methods. The reverse transcriptase polymerase chain reaction (RT-PCR) was performed using aromatase specific primers. The amplified aromatase cDNA fragments produced by RT-PCR were separated on an agarose gel. […] The estradiol production by the cells is shown as pikograms/ml (pg/ml) below the photograph of the gel showing the aromatase mRNA levels.
as §2

transcription of aromatase mRNA ([2]; FIG. 2): induced
Molecule: TNF-α
estradiol amount ([1]; FIG. 1): significantly increased

expression of aromatase mRNA in human adipocytes [2]: significantly increased
Molecule: IFN-α
estradiol production increase upon interferon induction ([1]; interferon alone, FIG. 3): about 6 fold

transcription of aromatase mRNA ([2]; FIG. 2): induced
Molecule: IL-1β: interleukin-1β

B1: TNF-β: tumor necrosis factor beta (protein, UniProt P01374 35-205, looked up)
Lymphotoxin-alpha: LPGVGLTPSAAQTARQHPKMHLAHSTLKPAAHLIGDPSKQNSLLWRANTDRAFLQDGFSLSNNSLLVPTSGIYFVYSQVVFSGKAYSPKATSSPLYLAHEVQLFSSQYPFHVPLLSSQKMVYPGLQEPWLHSMYHGAAFQLTQGDQLSTHTDGIPHLVLSPSTVFFGAFAL
estradiol amount ([1]; FIG. 1): significantly increased

transcription of aromatase mRNA induced by IL-1β ([2]; given together with IL-1β, FIG. 2): inhibits | transcription of aromatase mRNA induced by TNFα ([2]; given together with TNFα, FIG. 2): inhibits | expression of aromatase mRNA in human adipocytes [2]: inhibits
B2: IFN-γ: interferon gamma, added at 0.1 μg/ml to adipocyte culture medium (protein, UniProt P01579 24-161, looked up)
Interferon gamma: QDPYVKEAENLKKYFNAGHSDVADNGTLFLGILKNWKEESDRKIMQSQIVSFYFKLFKNFKDDQSIQKSVETIKEDMNVKFFNSNKKKRDDFEKLTNYSVTDLNVQRKAIHELIQVMAELSPAAKTGKRKRSQMLFRG
TNF-α induced estradiol production ([1]; 0.1 μg/ml IFN-γ, increasing concentrations of TNF-α, FIG. 1): inhibits | TNF-β induced estradiol production ([1]; 0.1 μg/ml IFN-γ, increasing concentrations of TNF-β, FIG. 1): inhibits | estradiol production ([1]; IFN-γ alone, FIG. 3): blocked completely

B3: TBP: soluble TNF binding protein, TNF-R1, as described in U.S. Pat. No. 6,225,300 (protein, UniProt P19438 30-211, looked up)
extracellular domain: LVPHLGDREKRDSVCPQGKYIHPQNNSICCTKCHKGTYLYNDCPGPGQDTDCRECESGSFTASENHLRHCLSCSKCRKEMGQVEISSCTVDRDTVCGCRKNQYRHYWSENLFQCFNCSLCLNGTVHLSCQEKQNTVCTCHAGFFLRENECVSCSNCKKSLECTKLCLPQIENVKGTEDSGTT
modifications: extracellular domain
TNF-α induced estradiol production ([1]; TNF-α at varying concentrations plus TBP, FIG. 4): completely blocked | TNF-β induced estradiol production ([1]; TNF-β at varying concentrations plus TBP, FIG. 4): completely blocked
